Measurements taken from paper PMC4930482.

B1: RNF26, wild type (coIP of Figures 5A and 5B) [not stated] / TOLLIP (endogenous) [human (endogenous in a human melanoma cell line and in HEK293T)] (parent)
chain 1: MEAVYLVVNGLGLVLDVLTLVLDLNFLLVSSLLASLAWLLAFVYNLPHTVLTSLLHLGRGVLLSLLALIEAVVRFTCGGLQALCTLLYSCCSGLESLKLLGHLASHGALRSREILHRGVLNVVSSGHALLRQACDICAIAMSLVAYVINSLVNICLIGTQNLFSLVLALWDAVTGPLWRMTDVVAAFLAHISSSAVAMAILLWTPCQLALELLASAARLLASFVLVNLTGLVLLACVLAVTVTVLHPDFTLRLATQALSQLHARPSYHRLREDVMRLSRLALGSEAWRRVWSRSLQLASWPNRGGAPGAPQGDPMRVFSVRTRRQDTLPEAGRRSEAEEEEARTIRVTPVRGRERLNEEEPPGGQDPWKLLKEQEERKKCVICQDQSKTVLLLPCRHLCLCQACTEILMRHPVYHRNCPLCRRGILQTLNVYL
chain 2: not shown
B2: RNF26, wild type (coIP of Figures 5A and 5B) [not stated] / EPS15 (endogenous) [human (endogenous in a human melanoma cell line and in HEK293T)] (parent)
chain 1: B1 chain 1
chain 2: MAAAAQLSLTQLSSGNPVYEKYYRQVDTGNTGRVLASDAAAFLKKSGLPDLILGKIWDLADTDGKGILNKQEFFVALRLVACAQNGLEVSLSSLNLAVPPPRFHDTSSPLLISGTSAAELPWAVKPEDKAKYDAIFDSLSPVNGFLSGDKVKPVLLNSKLPVDILGRVWELSDIDHDGMLDRDEFAVAMFLVYCALEKEPVPMSLPPALVPPSKRKTWVVSPAEKAKYDEIFLKTDKDMDGFVSGLEVREIFLKTGLPSTLLAHIWSLCDTKDCGKLSKDQFALAFHLISQKLIKGIDPPHVLTPEMIPPSDRASLQKNIIGSSPVADFSAIKELDTLNNEIVDLQREKNNVEQDLKEKEDTIKQRTSEVQDLQDEVQRENTNLQKLQAQKQQVQELLDELDEQKAQLEEQLKEVRKKCAEEAQLISSLKAELTSQESQISTYEEELAKAREELSRLQQETAELEESVESGKAQLEPLQQHLQDSQQEISSMQMKLMEMKDLENHNSQLNWCSSPHSILVNGATDYCSLSTSSSETANLNEHVEGQSNLESEPIHQESPARSSPELLPSGVTDENEVTTAVTEKVCSELDNNRHSKEEDPFNVDSSSLTGPVADTNLDFFQSDPFVGSDPFKDDPFGKIDPFGGDPFKGSDPFASDCFFRQSTDPFATSSTDPFSAANNSSITSVETLKHNDPFAPGGTVVAASDSATDPFASVFGNESFGGGFADFSTLSKVNNEDPFRSATSSSVSNVVITKNVFEETSVKSEDEPPALPPKIGTPTRPCPLPPGKRSINKLDSPDPFKLNDPFQPFPGNDSPKEKDPEIFCDPFTSATTTTNKEADPSNFANFSAYPSEEDMIEWAKRESEREEEQRLARLNQQEQEDLELAIALSKSEISEA
B3: RNF26, wild type (coIP of Figures 5A and 5B) [not stated] / USP15 (endogenous) [human (endogenous in a human melanoma cell line and in HEK293T)] (parent)
chain 1: B1 chain 1
chain 2: MAEGGAADLDTQRSDIATLLKTSLRKGDTWYLVDSRWFKQWKKYVGFDSWDKYQMGDQNVYPGPIDNSGLLKDGDAQSLKEHLIDELDYILLPTEGWNKLVSWYTLMEGQEPIARKVVEQGMFVKHCKVEVYLTELKLCENGNMNNVVTRRFSKADTIDTIEKEIRKIFSIPDEKETRLWNKYMSNTFEPLNKPDSTIQDAGLYQGQVLVIEQKNEDGTWPRGPSTPKSPGASNFSTLPKISPSSLSNNYNNMNNRNVKNSNYCLPSYTAYKNYDYSEPGRNNEQPGLCGLSNLGNTCFMNSAIQCLSNTPPLTEYFLNDKYQEELNFDNPLGMRGEIAKSYAELIKQMWSGKFSYVTPRAFKTQVGRFAPQFSGYQQQDCQELLAFLLDGLHEDLNRIRKKPYIQLKDADGRPDKVVAEEAWENHLKRNDSIIVDIFHGLFKSTLVCPECAKISVTFDPFCYLTLPLPMKKERTLEVYLVRMDPLTKPMQYKVVVPKIGNILDLCTALSALSGIPADKMIVTDIYNHRFHRIFAMDENLSSIMERDDIYVFEININRTEDTEHVIIPVCLREKFRHSSYTHHTGSSLFGQPFLMAVPRNNTEDKLYNLLLLRMCRYVKISTETEETEGSLHCCKDQNINGNGPNGIHEEGSPSEMETDEPDDESSQDQELPSENENSQSEDSVGGDNDSENGLCTEDTCKGQLTGHKKRLFTFQFNNLGNTDINYIKDDTRHIRFDDRQLRLDERSFLALDWDPDLKKRYFDENAAEDFEKHESVEYKPPKKPFVKLKDCIELFTTKEKLGAEDPWYCPNCKEHQQATKKLDLWSLPPVLVVHLKRFSYSRYMRDKLDTLVDFPINDLDMSEFLINPNAGPCRYNLIAVSNHYGGMGGGHYTAFAKNKDDGKWYYFDDSSVSTASEDQIVSKAAYVLFYQRQDTFSGTGFFPLDRETKGASAATGIPLESDEDSNDNDNDIENENCMHTN

Variants of: B1
Assay: coIP
Parameters: reference not given here
Settings: with TOLLIP (endogenous) [human (endogenous in a human melanoma cell line and in HEK293T)]; HEK293T cells; n = 3; read off a plot

Row | percent of parent | Variant
1 | 12 % Co-IP | chain 1 I382R

Variants of: B2
Assay: coIP
Settings: with EPS15 (endogenous) [human (endogenous in a human melanoma cell line and in HEK293T)]; HEK293T cells; n = 3; read off a plot

Row | percent of parent | Variant
2 | 22 % Co-IP | chain 1 I382R

Variants of: B3
Assay: coIP
Settings: with USP15 (endogenous) [human (endogenous in a human melanoma cell line and in HEK293T)]; HEK293T cells; n = 3; read off a plot

Row | percent of parent | Variant
3 | 27 % Co-IP | chain 1 I382R
